Data reported in US20070202045A1.
Bridges are numbered along the chain shown (N, C = ends). Where no end group is shown, it is not given here.

B1: AB.Fab4D5-H10 (Fab, part only; not given: carrier Fab4D5 heavy and light chains, not shown: another chain or arm of the molecule; large carriers)
peptide: {Fab4D5 heavy chain (…CDKTH)}-DICLPRWGCLW
modifications: disulfide 3-9
B2: AB.Fab4D5-H11 (Fab, part only; not given: Carrier Fab (trastuzumab), not shown: another chain or arm of the molecule; large carriers)
peptide: {Fab4D5 heavy chain (…CDKTH)}-DICLPRWGCL
modifications: disulfide 3-9
B3: AB.Fab4D5-H4 (Fab, part only; not given: carrier Fab4D5 heavy and light chains, not shown: another chain or arm of the molecule; large carriers)
peptide: {Fab4D5 heavy chain (…CDKTH)}-DICLPRWGCLWED
modifications: disulfide 3-9
B4: AB.Fab4D5-H8 (Fab, part only; not given: carrier Fab4D5 heavy and light chains, not shown: another chain or arm of the molecule; large carriers)
peptide: {Fab4D5 heavy chain (…CDKTH)}-IEDICLPRWGCLWE
modifications: disulfide 5-11

Legend:
[1] = target: rat albumin (rat) (UniProt P02770); assay: direct binding ELISA, immobilized albumin
[2] = target: rabbit albumin (rabbit) (UniProt P49065); assay: direct binding ELISA, immobilized albumin
[3] = target: mouse albumin (mouse) (UniProt P07724); assay: direct binding ELISA, immobilized albumin
[4] = target: rat albumin (rat) (UniProt P02770); assay: solution binding ELISA (Scatchard)
[5] = target: mouse albumin (mouse) (UniProt P07724); assay: solution binding ELISA (Scatchard)
[6] = target: rat albumin (rat) (UniProt P02770); assay: Kd for albumin as listed with the PK data (solution binding ELISA)
[7] = target: mouse albumin (mouse) (UniProt P07724); assay: solution binding ELISA; end of the range tied by Table 14 (41 nM)

rabbit albumin (rabbit), sequence (P49065 25-608 limits assumed): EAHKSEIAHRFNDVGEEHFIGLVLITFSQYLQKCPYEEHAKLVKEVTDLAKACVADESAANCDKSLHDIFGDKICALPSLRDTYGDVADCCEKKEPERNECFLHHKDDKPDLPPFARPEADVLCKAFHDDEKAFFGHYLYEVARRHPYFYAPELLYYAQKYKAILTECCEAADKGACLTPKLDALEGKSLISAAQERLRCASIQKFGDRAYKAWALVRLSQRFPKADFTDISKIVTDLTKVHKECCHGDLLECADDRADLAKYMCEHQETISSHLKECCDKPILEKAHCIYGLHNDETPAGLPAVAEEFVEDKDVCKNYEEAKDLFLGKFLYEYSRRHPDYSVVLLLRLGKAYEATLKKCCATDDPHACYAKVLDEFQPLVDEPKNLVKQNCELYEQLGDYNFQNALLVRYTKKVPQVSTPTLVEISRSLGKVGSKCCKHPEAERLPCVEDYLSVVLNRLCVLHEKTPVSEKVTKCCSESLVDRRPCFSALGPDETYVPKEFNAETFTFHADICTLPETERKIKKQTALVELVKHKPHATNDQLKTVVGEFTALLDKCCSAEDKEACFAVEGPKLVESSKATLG
rat albumin (rat), sequence (P02770 25-608 limits assumed): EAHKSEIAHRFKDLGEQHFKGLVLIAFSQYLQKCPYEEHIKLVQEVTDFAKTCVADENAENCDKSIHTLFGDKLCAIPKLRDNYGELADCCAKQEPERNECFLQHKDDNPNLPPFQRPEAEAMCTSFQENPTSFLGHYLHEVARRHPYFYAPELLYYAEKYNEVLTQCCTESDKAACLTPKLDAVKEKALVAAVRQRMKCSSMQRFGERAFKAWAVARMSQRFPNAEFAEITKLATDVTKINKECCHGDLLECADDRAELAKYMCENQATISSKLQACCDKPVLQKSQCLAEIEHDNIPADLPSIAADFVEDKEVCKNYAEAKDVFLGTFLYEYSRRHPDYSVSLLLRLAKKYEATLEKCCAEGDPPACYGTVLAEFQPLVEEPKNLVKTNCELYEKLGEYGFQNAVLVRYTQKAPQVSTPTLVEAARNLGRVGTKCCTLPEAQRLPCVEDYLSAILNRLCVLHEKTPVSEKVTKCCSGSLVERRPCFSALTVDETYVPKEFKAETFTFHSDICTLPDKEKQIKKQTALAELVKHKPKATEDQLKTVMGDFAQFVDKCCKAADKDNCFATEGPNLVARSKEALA
mouse albumin (mouse), sequence (P07724 25-608 limits assumed): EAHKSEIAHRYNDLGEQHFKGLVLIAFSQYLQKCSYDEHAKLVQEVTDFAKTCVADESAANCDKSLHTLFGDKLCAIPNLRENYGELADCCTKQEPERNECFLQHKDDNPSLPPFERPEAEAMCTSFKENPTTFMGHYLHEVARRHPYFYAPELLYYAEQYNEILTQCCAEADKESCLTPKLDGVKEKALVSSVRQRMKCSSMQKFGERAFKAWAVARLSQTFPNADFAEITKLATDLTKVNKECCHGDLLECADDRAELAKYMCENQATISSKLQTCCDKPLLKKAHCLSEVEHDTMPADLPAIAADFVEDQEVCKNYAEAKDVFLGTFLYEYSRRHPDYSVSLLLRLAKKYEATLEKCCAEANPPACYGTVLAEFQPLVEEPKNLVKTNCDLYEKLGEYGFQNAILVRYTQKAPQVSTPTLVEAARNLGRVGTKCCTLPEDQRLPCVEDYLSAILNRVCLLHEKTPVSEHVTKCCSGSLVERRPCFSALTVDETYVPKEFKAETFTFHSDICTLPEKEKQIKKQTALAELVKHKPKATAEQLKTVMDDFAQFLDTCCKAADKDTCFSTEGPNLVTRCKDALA

| Binder | EC50 [1] | EC50 [2] | EC50 [3] | Kd [4] | Kd [5] | Kd [6] | Kd [7] |
| --- | --- | --- | --- | --- | --- | --- | --- |
| B1 | 8 nM | > 2000 nM | – | – | – | – | – |
| B2 | > 1000 nM | > 2000 nM | > 2000 nM | 2430 nM | 1250 nM | 2500 nM | – |
| B3 | – | 500 nM | – | – | – | – | – |
| B4 | – | 500 nM | – | – | – | – | 40 nM |
